Data published in PMC314469, “Protein Interaction Networks by Proteome Peptide Scanning” (PLoS Biology, 2004).

T1: Yfr024 SH3 (LSB3_YEAST), P43603
T1 chain: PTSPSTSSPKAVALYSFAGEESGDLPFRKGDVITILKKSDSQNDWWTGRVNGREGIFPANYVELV

T2: Boi1 SH3 (BOI1_YEAST), P38041
T2 chain: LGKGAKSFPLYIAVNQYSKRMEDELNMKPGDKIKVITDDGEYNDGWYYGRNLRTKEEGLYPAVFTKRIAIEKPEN

T3: Yhr016c SH3 (YSC84_YEAST), P32793
T3 chain: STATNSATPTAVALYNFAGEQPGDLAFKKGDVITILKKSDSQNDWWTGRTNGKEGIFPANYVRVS

T4: Rvs167 SH3 (RV167_YEAST), P39743
T4 chain: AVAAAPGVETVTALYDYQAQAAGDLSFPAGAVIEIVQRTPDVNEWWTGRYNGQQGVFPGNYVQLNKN

T5: Boi2 SH3 (BOI2_YEAST), P39969
T5 chain: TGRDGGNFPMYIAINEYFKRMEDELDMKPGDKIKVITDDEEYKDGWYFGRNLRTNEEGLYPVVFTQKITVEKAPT


Key:
Assay in all cases: SPOT array
[1] = molecular target: T1, Yfr024 SH3 (LSB3_YEAST), P43603
[2] = molecular target: T2, Boi1 SH3 (BOI1_YEAST), P38041
[3] = molecular target: T3, Yhr016c SH3 (YSC84_YEAST), P32793
[4] = molecular target: T4, Rvs167 SH3 (RV167_YEAST), P39743
[5] = molecular target: T5, Boi2 SH3 (BOI2_YEAST), P39969

| normalised SPOT signal, Boehringer light units (BLU); mean over the file's lines of this peptide [1] | normalised SPOT signal, Boehringer light units (BLU); mean over the file's lines of this peptide [2] | normalised SPOT signal, Boehringer light units (BLU); mean over the file's lines of this peptide [3] | normalised SPOT signal, Boehringer light units (BLU); mean over the file's lines of this peptide [4] | normalised SPOT signal, Boehringer light units (BLU); mean over the file's lines of this peptide [5] | Binder |
| --- | --- | --- | --- | --- | --- |
| 167 | 1.6 | -0 | 13.3 | -0 | HEHPSGPLKKLFSD [YIL002C 144-157] |
| 2660 | 3310 | 225 | 86.7 | 145 | IAHPVRPHRAITMT [YBR276C 631-644] |
| 155 | 157 | 244 | 87.3 | 33.8 | HNSPVAPNRYAANL [YBR038W 84-97] |
| 1710 | 9.8 | 161 | 60.7 | 61 | HRGPRRPQKNRYNT [YMR280C 1394-1407] |
| 1350 | 673 | 142 | 561 | 170 | HSSPIAPSKAKRQR [YCR065W 64-77] |
| 572 | 86.7 | 216 | 16 | 18.8 | HQIPSAPQRLVSII [YMR136W 114-127] |
| 6510 | 61 | 1630 | 1900 | 15.5 | HLPPPPPPRAQQQQ [YOR329C 664-677] |
| 3170 | 49.7 | 126 | 95.9 | 53.7 | IAAPKKPRKPRQTK [YGL025C 241-254] |
| 747 | 80.3 | 222 | 67.7 | 60.3 | HGLPYKPSKLIRIF [YLR224W 329-342] |
| 35.4 | 161 | 329 | 29.1 | 62.5 | HLDPEAPDKLLENS [YOR301W 109-122] |
| -0 | 98.5 | 257 | 71.5 | 34.7 | GYDPTDPSRPRINE [YDR093W 1469-1482] |
| 54.7 | 108 | 69.3 | 35.5 | 52.4 | GYDPTDPNRPKVTK [YER166W 1426-1439] |
| 15.3 | 107 | 90.5 | 28.1 | 82.2 | HTPPLNPSKKSASI [YOR371C 699-712] |
| 555 | 140 | 765 | 82 | 33.6 | HGVPVVPSREVTIN [YER014W 440-453] |
| -0 | 72 | 161 | 50 | 12.4 | HPDPADPAKELELN [YDR037W 377-390] |
| 16700 | 2290 | 6510 | 282 | 77.8 | HSTPVTPRRLFTSQ [YGL003C 171-184] |
| 92.9 | 83.3 | 634 | 35.1 | 14.6 | HSEPAIPYRETFLS [YNL163C 746-759] |
